The values below come from publication PMC4218836 (2014).

Assay [1] addresses T1, GST-RhoBL63 (UniProt P62745 1-196, L63). Description: SPR.
For assay [2], the target named is T2, GST-RhoAL63 (UniProt P61586 1-193, L63). Description: SPR.
In assay [3] the target is T1, GST-RhoBL63. Description: SPR. This is another data set of the same source.
In assay [4] the target is T2, GST-RhoAL63. Description: SPR. The source holds these as a separate data set.
For the next assay, the target named is 6xHis-RhoBL63 (UniProt P62745 1-196, L63). The assay is described as follows: ELISA.
6xHis-RhoBL63, sequence (P62745 other isoform, or with tags, fused parts or gaps L63): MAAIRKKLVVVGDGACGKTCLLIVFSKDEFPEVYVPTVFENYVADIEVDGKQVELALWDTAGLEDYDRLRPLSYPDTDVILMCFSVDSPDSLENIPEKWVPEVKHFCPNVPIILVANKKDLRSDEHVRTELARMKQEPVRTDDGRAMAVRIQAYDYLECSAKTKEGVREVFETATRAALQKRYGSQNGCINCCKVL
A further assay addresses 6xHis-RhoAL63 (UniProt P61586 1-193, L63). Description: ELISA.

T1 sequence (P62745 other isoform, or with tags, fused parts or gaps L63): as above
T2 sequence (P61586 other isoform, or with tags, fused parts or gaps L63): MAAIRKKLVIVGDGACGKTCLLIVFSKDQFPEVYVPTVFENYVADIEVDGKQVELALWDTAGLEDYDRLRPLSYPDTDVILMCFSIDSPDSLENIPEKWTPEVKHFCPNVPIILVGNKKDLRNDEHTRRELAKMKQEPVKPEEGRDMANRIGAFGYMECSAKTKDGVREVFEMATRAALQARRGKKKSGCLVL
6xHis-RhoAL63, sequence (P61586 other isoform, or with tags, fused parts or gaps L63): as above

B1: scFvE3 (soluble, in fusion with the N-terminal domain of the phage P3 protein) (scFv, V domains shown)
VH: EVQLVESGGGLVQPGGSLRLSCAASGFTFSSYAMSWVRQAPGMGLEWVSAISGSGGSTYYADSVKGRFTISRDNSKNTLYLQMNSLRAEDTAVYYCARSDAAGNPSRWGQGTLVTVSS
VL: SSELTQDPAVSVALGQTVRITCQGDSLRSYYTSWYQQKPGQAPVRVIYGKNNRPSGVPDRFSGSSSGNTASLTITGAQAEDEADYYCNSRDSSGNHAYVFGGGTKLTVL
For the molecule B1, the koff with GST-RhoBL63 [1] was determined as 0.000683 s⁻¹; with GST-RhoAL63 [2] it was 0.0176 s⁻¹. The Kd in the assay with GST-RhoBL63 [3] worked out at 0.00314 µM; with GST-RhoAL63 [4], 0.0369 µM.

B2: scFvD10 (soluble, in fusion with the N-terminal domain of the phage P3 protein) (scFv, V domains shown)
VH: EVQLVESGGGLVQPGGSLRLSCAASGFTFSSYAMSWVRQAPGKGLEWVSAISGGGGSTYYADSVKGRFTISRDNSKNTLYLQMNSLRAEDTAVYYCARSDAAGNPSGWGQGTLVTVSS
VL: SSELTQDPAVSVALGQTVRITCQGDSLRSYYASWYQQKPGQAPVLVIYGKNNRPSGIPDRFSGSSSGNTASLTITGAQAEDEADYYCNSRDSSGNHAYVFGGGTKLTVL
Molecule B2 returned a koff with GST-RhoAL63 [2] of 0.00297 s⁻¹. In the assay with GST-RhoAL63 [4], this molecule displayed a Kd of 0.0396 µM.

B3: scFvA5 (soluble, in fusion with the N-terminal domain of the phage P3 protein) (scFv, V domains shown)
VH: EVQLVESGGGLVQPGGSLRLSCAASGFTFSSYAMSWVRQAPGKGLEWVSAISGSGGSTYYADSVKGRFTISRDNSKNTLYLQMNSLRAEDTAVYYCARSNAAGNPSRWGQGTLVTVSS
VL: SSELTQDPAVSVALGQTVRITCQGDSLRSYYASWYQQKPGQAPVLVIYGKNNRPSGIPDRFSGSSSGNTASLTITGAQAEDEADYYCNSRDSSGNHAYVFGGGTKLTVL
On to B3, for which the Kd with 6xHis-RhoBL63 amounted to 0.024 µM; in the assay with 6xHis-RhoAL63, 0.0245 µM.

B4: scFvF7 (soluble, in fusion with the N-terminal domain of the phage P3 protein) (scFv, V domains shown)
VH: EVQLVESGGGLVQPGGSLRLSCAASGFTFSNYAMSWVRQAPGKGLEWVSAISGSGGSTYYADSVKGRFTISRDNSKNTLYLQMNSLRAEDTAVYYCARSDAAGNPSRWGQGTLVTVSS
VL: SSELTQDPAVSVALGQTVRITCQGDSLRSYYASWYQQKPGQAPVLVIYGKNNRPSGIPDRFSGSSSGNTASLTITGAQAEDEADYYCNTRDSSGNHAYVFGGGTKLTVL
As for B4, the koff was 0.000414 s⁻¹ with GST-RhoBL63 [1] and 0.000248 s⁻¹ with GST-RhoAL63 [2]. For the same molecule, the Kd with GST-RhoBL63 [3] is 0.00339 µM; with GST-RhoAL63 [4], 0.00235 µM.
